The values below come from article PMC4321881.

In this experiment the target is nascent chain-containing 60S ribosomal subunit (60S-RNC) (UniProt P35268).

Sequence of Listerin (O94822 whole entry): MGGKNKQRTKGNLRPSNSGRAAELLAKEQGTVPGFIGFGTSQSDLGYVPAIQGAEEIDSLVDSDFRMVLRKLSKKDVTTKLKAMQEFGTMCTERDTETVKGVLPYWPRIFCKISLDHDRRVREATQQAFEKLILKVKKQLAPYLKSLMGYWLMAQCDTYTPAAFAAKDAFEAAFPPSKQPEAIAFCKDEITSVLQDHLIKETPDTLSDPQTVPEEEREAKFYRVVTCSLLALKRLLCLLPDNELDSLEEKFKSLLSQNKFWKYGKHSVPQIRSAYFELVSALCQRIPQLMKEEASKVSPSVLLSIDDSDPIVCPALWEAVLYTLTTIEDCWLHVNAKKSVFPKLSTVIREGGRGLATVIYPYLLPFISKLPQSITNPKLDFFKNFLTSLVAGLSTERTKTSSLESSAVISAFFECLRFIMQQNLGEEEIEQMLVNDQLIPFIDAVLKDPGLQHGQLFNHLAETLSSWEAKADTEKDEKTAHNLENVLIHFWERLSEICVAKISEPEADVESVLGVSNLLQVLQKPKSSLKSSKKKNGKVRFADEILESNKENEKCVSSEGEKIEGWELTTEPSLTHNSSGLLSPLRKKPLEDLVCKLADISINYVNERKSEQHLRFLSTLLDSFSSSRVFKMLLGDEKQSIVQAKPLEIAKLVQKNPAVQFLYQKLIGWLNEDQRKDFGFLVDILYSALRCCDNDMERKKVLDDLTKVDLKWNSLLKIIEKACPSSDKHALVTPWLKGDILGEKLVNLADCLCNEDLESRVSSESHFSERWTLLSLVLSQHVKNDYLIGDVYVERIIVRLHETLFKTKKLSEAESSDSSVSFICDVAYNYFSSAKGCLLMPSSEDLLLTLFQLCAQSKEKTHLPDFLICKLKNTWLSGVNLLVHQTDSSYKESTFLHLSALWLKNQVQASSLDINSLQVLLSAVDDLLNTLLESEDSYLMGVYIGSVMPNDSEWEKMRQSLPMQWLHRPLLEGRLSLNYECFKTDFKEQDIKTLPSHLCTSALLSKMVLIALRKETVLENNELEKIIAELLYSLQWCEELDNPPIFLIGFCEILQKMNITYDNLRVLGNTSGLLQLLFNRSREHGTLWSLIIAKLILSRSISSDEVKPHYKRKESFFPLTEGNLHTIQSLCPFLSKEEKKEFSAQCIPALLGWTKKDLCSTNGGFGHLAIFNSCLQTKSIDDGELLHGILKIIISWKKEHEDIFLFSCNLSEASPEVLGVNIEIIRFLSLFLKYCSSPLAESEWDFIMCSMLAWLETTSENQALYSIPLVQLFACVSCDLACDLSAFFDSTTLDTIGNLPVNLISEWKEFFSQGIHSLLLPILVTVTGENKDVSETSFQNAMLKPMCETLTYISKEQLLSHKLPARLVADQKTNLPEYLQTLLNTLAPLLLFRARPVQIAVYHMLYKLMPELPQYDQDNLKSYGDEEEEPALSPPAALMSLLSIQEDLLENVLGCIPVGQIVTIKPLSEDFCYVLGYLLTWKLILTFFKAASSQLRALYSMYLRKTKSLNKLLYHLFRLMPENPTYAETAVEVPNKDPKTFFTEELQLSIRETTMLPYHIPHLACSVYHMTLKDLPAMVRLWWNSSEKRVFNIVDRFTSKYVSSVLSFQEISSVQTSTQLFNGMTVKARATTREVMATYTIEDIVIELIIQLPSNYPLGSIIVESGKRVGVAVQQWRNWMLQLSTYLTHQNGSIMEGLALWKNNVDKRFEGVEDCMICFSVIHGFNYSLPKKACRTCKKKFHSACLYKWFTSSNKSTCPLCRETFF

With “Listerin (from UniProt O94822 1-1766) (enzyme)”, the poly-ubiquitination of the nascent chain-tRNA, purified NEMF titrated into reactions with 5 nM 80S-RNCs and 1.2 nM Listerin, relative to no NEMF fell in the range of 3 to 5 fold.
